Measured values as given in publication doi:10.1101/2021.04.27.441571.
Blank lines part the entries; values can stand above or below the molecule they belong to.

Key:
[1] = biological target: wild type (WT) talin R3 domain
talin R3-IVVI domain [2] = biological target: talin R3-IVVI domain
talin R3-IVVI domain [3] = biological target: talin R3-IVVI domain; remark: listed apart in the source
talin R3-IVVI domain [4] = biological target: talin R3-IVVI domain; remark: listed apart in the source
talin R3-IVVI domain [5] = biological target: talin R3-IVVI domain; remark: listed apart in the source

intersection force of R3-WT with DnaJ; without chaperone ∼6 pN [1]: 4 pN
percent of force-ramp events of R3-IVVI with hysteresis, with DnaJ; control ∼9% (talin R3-IVVI domain [2]): 86%
Molecule: DnaJ (from UniProt P08622 1-376) (natural protein)

intersection force of R3-WT with DnaK; without chaperone ∼6 pN [1]: 4 pN
unfolding force of R3-IVVI in the presence of DnaK, DnaJ and ADP (DnaKJ-ADP) (talin R3-IVVI domain [3]): 6 pN
unfolding force of R3-IVVI with DnaK after addition of ATP (apo-DnaK: ∼6 pN) (talin R3-IVVI domain [3]): 7.5 pN
intersection force of R3-IVVI with DnaK-ADP complex (chevron plot) (talin R3-IVVI domain [4]): 7.1 pN
intersection force of R3-IVVI with DnaK-ATP (chevron plot) (talin R3-IVVI domain [4]): 7.6 pN
percent of force-ramp events of R3-IVVI with hysteresis, with DnaK; control ∼9% (talin R3-IVVI domain [2]): 91%
Molecule: DnaK (from UniProt P0A6Y8 1-638) (natural protein)

intersection force of talin R3-IVVI (chevron plot), with Hsp40; control 9.8 pN (talin R3-IVVI domain [5]): 7.8 pN
Molecule: Hsp40 (from UniProt P25685 1-340) (natural protein)

intersection force of talin R3-IVVI (chevron plot), with Hsp70; control 9.8 pN (talin R3-IVVI domain [5]): 7.2 pN
Molecule: Hsp70 (from UniProt P0DMV8 1-641) (natural protein)

intersection force of R3-WT with DsbA; without chaperone ∼6 pN [1]: 10 pN
B1: DsbA (oxidized) (enzyme)
chain: AQYEDGKQYTTLEKPVAGAPQVLEFFSFFCPHCYQFEEVLHISDNVKKKLPEGVKMTKYHVNFMGGDLGKDLTQAWAVAMALGVEDKVTVPLFEGVQKTQTIRSASDIRDVFINAGIKGEEYDAAWNSFVVKSLVAQQEKAAADVQLRGVPAMFVNGKYQLNPQGMDTSNMDVFVQQYADTVKYLSEKK
modifications: oxidized (0.3% H2O2 overnight)
